Laboratory results from publication PMC5199209, “A Cascade of Thermophilic Enzymes As an Approach to the Synthesis of Modified Nucleotides” (Acta Naturae, 2016).

T1: TspRK (ribokinase from Thermus sp. 2.9) (Thermus sp. 2.9, UniProt A0A0B0SD75)
T1 construct: gene rbsK; full-length, six-histidine tag (pET-23d+, NcoI/XhoI), codon-optimized synthetic gene; E. coli host
T1 sequence (A0A0B0SD75 1-301): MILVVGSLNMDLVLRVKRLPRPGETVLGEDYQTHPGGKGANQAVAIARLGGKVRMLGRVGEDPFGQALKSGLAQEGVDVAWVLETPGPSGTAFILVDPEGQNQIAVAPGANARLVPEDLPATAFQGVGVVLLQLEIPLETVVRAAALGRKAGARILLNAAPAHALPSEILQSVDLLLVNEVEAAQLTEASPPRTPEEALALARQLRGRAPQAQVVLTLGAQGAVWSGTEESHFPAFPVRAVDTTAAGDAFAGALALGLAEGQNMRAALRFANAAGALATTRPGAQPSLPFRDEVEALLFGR


Key:
[1] = biological target: T1, TspRK (ribokinase from Thermus sp. 2.9); assay: HPLC of nucleotides (ATP consumption), nonlinear regression with substrate-inhibition equation; type: biochemical; conditions: 1 mM ATP, 5 mM MgCl2, 50 mM KCl, 10 mM KH2PO4, pH 8.0, 75 °C; substrate inhibition by binding of a second molecule; second site
From the text: HPLC of nucleotides (ATP consumption), nonlinear regression with substrate-inhibition equation on TspRK (ribokinase from Thermus sp. 2.9)

[2] = substrate: Nc1ncnc2c1ncn2[C@@H]1O[C@H](COP(=O)(O)OP(=O)(O)OP(=O)(O)O)[C@@H](O)[C@H]1O; assay: HPLC of nucleotides (ATP consumption), nonlinear regression, Michaelis-Menten; type: biochemical, Thermus sp. 2.9; conditions: 1 mM D-ribose, 5 mM MgCl2, 50 mM KCl, 10 mM KH2PO4, pH 8.0, 75 °C
From the text: HPLC of nucleotides (ATP consumption), nonlinear regression, Michaelis-Menten on TspRK (ribokinase from Thermus sp. 2.9)

Row | Molecule | Ki, μM [1] | Km [2] [µM] | Vmax [2] [µM/min/mg] | kcat [2] [s⁻¹] | kcat/Km [2] [M⁻¹ s⁻¹]
1 | OC1OC[C@@H](O)[C@@H](O)[C@H]1O (stereo partly drawn) [D-ribose] | 1,700 ± 400 μM |  |  |  | 
2 | TspRK (ribokinase from Thermus sp. 2.9) (Thermus sp. 2.9) (protein, full-length, six-histidine tag (pET-23d+, NcoI/XhoI), codon-optimized synthetic gene; E. coli host) MILVVGSLNMDLVLRVKRLPRPGETVLGEDYQTHPGGKGANQAVAIARLGGKVRMLGRVGEDPFGQALKSGLAQEGVDVAWVLETPGPSGTAFILVDPEGQNQIAVAPGANARLVPEDLPATAFQGVGVVLLQLEIPLETVVRAAALGRKAGARILLNAAPAHALPSEILQSVDLLLVNEVEAAQLTEASPPRTPEEALALARQLRGRAPQAQVVLTLGAQGAVWSGTEESHFPAFPVRAVDTTAAGDAFAGALALGLAEGQNMRAALRFANAAGALATTRPGAQPSLPFRDEVEALLFGR |  | 75 ± 11 | 13 | 6.8 ± 0.7 | 91000
